Source: patent WO2009147196A1 (dated 2009)

Molecular target: Rev of the HIV-1 NL4.3 molecular clone (HIV-1)
Test: cell-based or functional assay

B1: Nb_190 expressed intracellularly (pcDNA3.1-Nb_190; HIV-1 NL4.3-Nb_190) (VHH)
VHH: QVQLQESGGGLVQAGGSLRLSCAASGSIFSINTMGWYRQAPGKQRELVAFATSGGSTNYPDSVKGRFTISRDNVKNTVYLQMNSLKPEDTAVYYCNIDGFLGSLYKDYWSQGTQVTVSS
  virus production (p24) from the HIV-1 NL4.3-Nb_190 clone in HEK 293T cells: 300 fold reduction
